Molecular target: Flag-tagged PKMζ (protein kinase M ζ) (human) (UniProt Q05513)
Experiment: co-IP

Chain of UniProt Q05513 (Q05513 184-592): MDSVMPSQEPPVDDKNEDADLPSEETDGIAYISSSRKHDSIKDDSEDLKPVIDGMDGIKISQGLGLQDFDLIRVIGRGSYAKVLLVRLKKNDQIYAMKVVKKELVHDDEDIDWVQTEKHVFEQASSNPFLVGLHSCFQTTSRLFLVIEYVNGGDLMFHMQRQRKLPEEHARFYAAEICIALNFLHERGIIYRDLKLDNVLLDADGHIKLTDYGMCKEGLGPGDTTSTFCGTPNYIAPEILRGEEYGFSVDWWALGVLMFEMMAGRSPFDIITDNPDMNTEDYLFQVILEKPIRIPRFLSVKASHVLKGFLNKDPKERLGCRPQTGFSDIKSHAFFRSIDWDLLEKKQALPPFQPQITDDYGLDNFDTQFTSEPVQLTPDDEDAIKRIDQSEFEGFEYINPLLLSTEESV

synthetic biotin-labeled peptide containing the binding motif (KIBRA position 948-978)
IC50: 60 nM

From publication PMC3947452
